Test results as given in patent US20140294825A1 (JN BIOSCIENCES, published 2014).
One block for each binder: values may come before it.

What was measured:
human FcRn [1] = target: T1, human FcRn (human, UniProt P55899 24-365; P61769 21-119); experiment: flow cytometry on NS0 cells expressing human FcRn, 1 µg/ml antibody, pH 6.0 and 7.5
T1 construct: whole, on cells; Heterodimer stably expressed on the surface of NS0 cells; also called neonatal Fc receptor; NS0/FcRn cells
Protocol: (§1) The ability of Ch9G6-IgG1, Ch9G6-IgG1/M and Ch9G6-MVIgG1 antibodies to bind to FcRn in a pH-dependent manner was analyzed by flow cytometry using NS0 cells expressing human FcRn on the cell surface (NS0/FcRn cells). NS0/FcRn transfectants stably expressing human FcRn, a heterodimer composed of the FcRn α chain and β2-microglubulin, on the cell surface was generated following the general procedure described by Hinton et al. (J. Biol. Chem. 279:6213-6216 2004), which is incorporated herein by reference. Ch9G6-IgG1, Ch9G6-IgG1/M and Ch9G6-MVIgG1 at 1 μg/ml were separately incubated with NS0/FcRn cells at pH 6.0 and 7.5 at the primary staining step following the procedure described by Hinton et al. (supra). Antibodies binding to FcRn were detected using PE-labeled goat polyclonal anti-human gamma chain antibody (for Ch9G6-IgG1 and no antibody control) or PE-labeled goat polyclonal anti-human μ chain antibody (for Ch9G6-IgG1/M, Ch9G6-MVIgG1 and no antibody control) at the secondary staining step.
(§2) The ability of Ch9G6-IgG3D, Ch9G6-IgG3D/M and Ch9G6-MVIgG3D antibodies to bind to FcRn in a pH-dependent manner was analyzed by flow cytometry using NS0 cells expressing human FcRn on the cell surface (NS0/FcRn cells). Ch9G6-IgG3D, Ch9G6-Ig3D/M and Ch9G6-MVIgG3D at 1 μg/ml were separately incubated with NS0/FcRn cells at pH 6.0 and 7.5 at the primary staining step as described in Example 4. Antibodies binding to FcRn were detected using PE-labeled goat polyclonal anti-human gamma chain antibody (for Ch9G6-IgG3D and no antibody control) or PE-labeled goat polyclonal anti-human μ chain antibody (for Ch9G6-IgG3D/M, Ch9G6-MVIgG3D and no antibody control) at the secondary staining step.

[2] = target: T2, recombinant human CD30 extracellular region fused at the C-terminus to the Fc region of human γ1 chain (human); experiment: bridging ELISA: CD30-Fc coated, supernatant, then CD79a-Cλ in solution, anti-human λ chain HRP detection; no signal means the anti-CD79a antibody was not captured on CD30-Fc
T2 construct: also called CD30-Fc

[3] = target: T3, recombinant human CD30 extracellular region fused at the C-terminus to the human λ2 constant region (human); experiment: bridging ELISA: CD79a-Fc coated, supernatant, then CD30-Cλ in solution, anti-human λ chain HRP detection; no signal means the anti-CD79a antibody did not hold CD30-Cλ
T3 construct: Cysteine at the second position from the carboxyl terminus of the constant region changed to serine; also called CD30-Cλ

human FcRn [4] = target: T1, human FcRn; experiment: flow cytometry on NS0 cells expressing human FcRn, pH 6.0 and 7.5, PE anti-human µ chain detection
Protocol: as §1, with “Ch9G6-IgG1, Ch9G6-IgG1/M and Ch9G6-MVIgG1 at 1 μg/ml were separately incubated with NS0/FcRn cells at pH 6.0 and 7.5 at the primary staining step following the procedure described by Hinton et al. (supra).” left out
as §2, with “Ch9G6-IgG3D, Ch9G6-Ig3D/M and Ch9G6-MVIgG3D at 1 μg/ml were separately incubated with NS0/FcRn cells at pH 6.0 and 7.5 at the primary staining step as described in Example 4.” left out

Protein G = target: T4, Protein G (Streptococcal, UniProt P19909 303-497); experiment: Protein G Sepharose column, culture supernatant
T4 construct: Commercial resin; also called Protein G Sepharose column

human CD16 = target: T5, human CD16 (human, UniProt P08637 17-254); experiment: flow cytometry on HEK293 cells transiently expressing human CD16, PE anti-human µ heavy chain detection
T5 construct: whole, on cells; also called Fcγ receptor type III
T5 sequence (P08637 17-254): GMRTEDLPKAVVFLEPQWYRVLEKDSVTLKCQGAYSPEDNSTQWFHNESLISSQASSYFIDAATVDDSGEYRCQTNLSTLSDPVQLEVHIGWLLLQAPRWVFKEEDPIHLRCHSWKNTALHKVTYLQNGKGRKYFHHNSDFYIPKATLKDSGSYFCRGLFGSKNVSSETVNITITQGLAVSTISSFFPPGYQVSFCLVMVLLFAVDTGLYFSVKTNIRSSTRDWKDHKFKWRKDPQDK

T2 sequence (chain, as listed by the source limits assumed): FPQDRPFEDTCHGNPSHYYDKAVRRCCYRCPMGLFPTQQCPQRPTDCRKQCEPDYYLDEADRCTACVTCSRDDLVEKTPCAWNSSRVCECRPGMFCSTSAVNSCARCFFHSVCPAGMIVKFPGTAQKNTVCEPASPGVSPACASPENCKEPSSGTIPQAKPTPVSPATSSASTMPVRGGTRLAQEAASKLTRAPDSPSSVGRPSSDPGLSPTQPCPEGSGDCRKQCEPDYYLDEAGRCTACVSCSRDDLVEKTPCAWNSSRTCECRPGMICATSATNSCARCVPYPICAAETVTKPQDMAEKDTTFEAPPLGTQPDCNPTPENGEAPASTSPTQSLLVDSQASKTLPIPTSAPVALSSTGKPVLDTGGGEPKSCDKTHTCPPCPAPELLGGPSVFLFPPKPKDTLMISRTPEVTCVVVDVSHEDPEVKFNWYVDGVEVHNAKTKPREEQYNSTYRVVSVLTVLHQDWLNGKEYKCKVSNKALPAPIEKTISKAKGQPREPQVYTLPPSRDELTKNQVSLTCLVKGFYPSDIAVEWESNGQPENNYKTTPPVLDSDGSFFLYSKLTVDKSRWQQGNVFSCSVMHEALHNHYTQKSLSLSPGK
T3 sequence (chain, as listed by the source limits assumed): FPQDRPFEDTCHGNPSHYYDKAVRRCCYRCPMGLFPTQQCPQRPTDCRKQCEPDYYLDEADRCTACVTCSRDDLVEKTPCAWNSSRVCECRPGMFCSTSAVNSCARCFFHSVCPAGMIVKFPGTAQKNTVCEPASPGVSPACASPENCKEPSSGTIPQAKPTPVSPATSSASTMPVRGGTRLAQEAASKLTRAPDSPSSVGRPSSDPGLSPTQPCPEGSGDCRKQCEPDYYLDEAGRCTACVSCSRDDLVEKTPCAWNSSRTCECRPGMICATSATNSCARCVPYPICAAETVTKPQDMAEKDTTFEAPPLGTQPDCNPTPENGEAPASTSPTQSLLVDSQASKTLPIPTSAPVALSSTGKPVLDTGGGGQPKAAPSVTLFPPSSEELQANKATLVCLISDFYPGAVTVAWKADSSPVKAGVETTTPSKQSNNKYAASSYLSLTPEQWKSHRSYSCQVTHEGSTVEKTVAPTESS
T4 sequence (P19909 303-497): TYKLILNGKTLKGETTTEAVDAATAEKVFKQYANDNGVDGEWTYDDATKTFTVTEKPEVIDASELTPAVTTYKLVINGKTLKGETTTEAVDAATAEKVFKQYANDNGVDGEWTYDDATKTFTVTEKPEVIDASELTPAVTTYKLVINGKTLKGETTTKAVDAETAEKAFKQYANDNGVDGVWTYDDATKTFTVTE

binding result (human FcRn [1]): binds
B1: Ch9G6-MVIgG3D (antibody)
heavy: QVQLQQSGPELVKPGASVKISCKASGYTFSTSWMNWVKQRPGQGLEWIGRIYPGDGDTNYNGKFKGKATLTADKSSNTAYMQLSSLTSVDSAVYFCERFYYGNTFAMDYWGQGTSVTVSSASTKGPSVFPLAPCSRSTSGGTAALGCLVKDYFPEPVTVSWNSGALTSGVHTFPAVLQSSGLYSLSSVVTVPSSSLGTQTYTCNVNHKPSNTKVDKRVEPKSCDTPPPCPRCPAPELLGGPSVFLFPPKPKDTLMISRTPEVTCVVVDVSHEDPEVQFKWYVDGVEVHNAKTKPREEQYNSTFRVVSVLTVLHQDWLNGKEYKCKVSNKALPAPIEKTISKTKGQPREPQVYTLPPSREEMTKNQVSLTCLVKGFYPSDIAVEWESSGQPENNYNTTPPMLDSDGSFFLYSKLTVDKSRWQQGNIFSCSVMHEALHNRFTQKSLSLSPGKDQDTAIRVFAIPPSFASIFLTKSTKLTCLVTDLTTYDSVTISWTRQNGEAVKTHTNISESHPNATFSAVGEASICEDDWNSGERFTCTVTHTDLPSPLKQTISRPKGVALHRPDVYLLPPAREQLNLRESATITCLVTGFSPADVFVQWMQRGQPLSPEKYVTSAPMPEPQAPGRYFAHSILTVSEEEWNTGETYTCVVAHEALPNRVTERTVDKSTGKPTLYNVSLVMSDTAGTCY
light: DVLMTQIPLSLPVSLGDQASISCRSSQSIVHSNGNTYLEWYLQKPGQSPKLLIYKVSNRFSGVPDRFSGSGSGTDFTLKISRVEAEDLGVYYCFQGSHVPFTFGSGTKLEIKRTVAAPSVFIFPPSDEQLKSGTASVVCLLNNFYPREAKVQWKVDNALQSGNSQESVTEQDSKDSTYSLSSTLTLSKADYEKHKVYACEVTHQGLSSPVTKSFNRGEC
notes: Pentamer or hexamer of the H2L2 unit in native form (NS0 cells, Protein G purified); also called multivalent IgG3 antibody

binding result (human FcRn [1]): binds
B2: Ch9G6-IgG1 (antibody)
heavy: not shown
light: B1 light
notes: also called chimeric IgG1 form of the mouse anti-human CD79a monoclonal antibody 9G6

binding result (human FcRn [1]): binds | binding result [2]: no binding | binding result [3]: no binding
B3: Ch9G6-MVIgG1 (antibody)
heavy: not shown
light: B1 light
notes: also called multivalent anti-CD79a IgG1 antibody

binding result (human FcRn [1]): binds
B4: Ch9G6-IgG3D (antibody)
heavy: QVQLQQSGPELVKPGASVKISCKASGYTFSTSWMNWVKQRPGQGLEWIGRIYPGDGDTNYNGKFKGKATLTADKSSNTAYMQLSSLTSVDSAVYFCERFYYGNTFAMDYWGQGTSVTVSSASTKGPSVFPLAPCSRSTSGGTAALGCLVKDYFPEPVTVSWNSGALTSGVHTFPAVLQSSGLYSLSSVVTVPSSSLGTQTYTCNVNHKPSNTKVDKRVEPKSCDTPPPCPRCPAPELLGGPSVFLFPPKPKDTLMISRTPEVTCVVVDVSHEDPEVQFKWYVDGVEVHNAKTKPREEQYNSTFRVVSVLTVLHQDWLNGKEYKCKVSNKALPAPIEKTISKTKGQPREPQVYTLPPSREEMTKNQVSLTCLVKGFYPSDIAVEWESSGQPENNYNTTPPMLDSDGSFFLYSKLTVDKSRWQQGNIFSCSVMHEALHNRFTQKSLSLSPGK
light: B1 light
notes: NS0 cells, Protein G purified; monomer of about 150 kDa; also called chimeric anti-CD79a IgG3 monoclonal antibody (first, second and third hinge regions eliminated)

binding result (human FcRn [4]): no binding (tested: 1 µg/ml) | binding result (Protein G): no binding | binding result (human CD16): no binding (tested: 1 µg/ml)
B5: Ch9G6-IgG3D/M (antibody)
heavy: QVQLQQSGPELVKPGASVKISCKASGYTFSTSWMNWVKQRPGQGLEWIGRIYPGDGDTNYNGKFKGKATLTADKSSNTAYMQLSSLTSVDSAVYFCERFYYGNTFAMDYWGQGTSVTVSSASTKGPSVFPLAPCSRSTSGGTAALGCLVKDYFPEPVTVSWNSGALTSGVHTFPAVLQSSGLYSLSSVVTVPSSSLGTQTYTCNVNHKPSNTKVDKRVEPKSCDTPPPCPRCPDQDTAIRVFAIPPSFASIFLTKSTKLTCLVTDLTTYDSVTISWTRQNGEAVKTHTNISESHPNATFSAVGEASICEDDWNSGERFTCTVTHTDLPSPLKQTISRPKGVALHRPDVYLLPPAREQLNLRESATITCLVTGFSPADVFVQWMQRGQPLSPEKYVTSAPMPEPQAPGRYFAHSILTVSEEEWNTGETYTCVVAHEALPNRVTERTVDKSTGKPTLYNVSLVMSDTAGTCY
light: B1 light
notes: NS0 cells, purified on anti-human IgM agarose; mixture of species (650, 180, 90 kDa peaks); also called Ch9G6-Ig3D/M
